Assay in all cases: high-throughput RNA pulldown from lysate on Ni-NTA beads; HRP: 50 mM Tris pH 8, 150 mM NaCl, 1 mM beta-mercaptoethanol, 50 ug/ml BSA, 3 ug/ml yeast RNA, 0.5% heparin; ITC and FP: Tris pH 8, 200 mM KCl, 5% glycerol; MST: 50 mM Tris pH 8, 200 mM NaCl, 1 mM DTT, BSA, heparin, 0.05% Tween 20
Holding throughout (conditions): tags: N-terminal His-eGFP

The target in data set [1] is T1, GFP-9S library array, motif 4 ND N98M (synthetic construct, N98M).
T1 chain: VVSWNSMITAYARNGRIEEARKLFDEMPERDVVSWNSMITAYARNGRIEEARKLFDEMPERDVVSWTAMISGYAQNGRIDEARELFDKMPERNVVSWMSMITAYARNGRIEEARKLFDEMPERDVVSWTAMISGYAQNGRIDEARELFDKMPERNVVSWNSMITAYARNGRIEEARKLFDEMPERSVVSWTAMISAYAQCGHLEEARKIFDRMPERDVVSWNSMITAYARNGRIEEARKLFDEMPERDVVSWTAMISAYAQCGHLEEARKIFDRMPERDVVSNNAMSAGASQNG

Data set [2] addresses T2, GFP-9S library array, motif 4 ND N98A;D124T (synthetic construct, N98A;D124T).
T2 chain: T1 chain with M98A, D124T

In data set [3] the target is T3, GFP-9S library array, motif 4 ND N98I;D124G (synthetic construct, N98I;D124G).
T3 chain: T1 chain with M98I, D124G

Data set [4] deals with T4, GFP-9S library array, motif 4 ND N98R;D124N (synthetic construct, N98R;D124N).
T4 chain: T1 chain with M98R, D124N

For data set [5], the target named is T5, GFP-9S library array, motif 4 ND N98W;D124C (synthetic construct, N98W;D124C).
T5 chain: T1 chain with M98W, D124C

Numbering of substitutions follows the chain as printed.

Consider AUUAUACGUGA (ssRNA) [IR-rpoA-U], for which the dissociation constant Kd in data set [1] (label: 5' IRDye 800CW) was determined as 0.129 µM; in data set [2] (label: 5' IRDye 800CW), 0.0689 µM; in data set [3] (label: 5' IRDye 800CW), 0.0266 µM; in data set [4] (label: 5' IRDye 800CW), 0.0959 µM; in data set [5] (label: 5' IRDye 800CW), 0.199 µM.
For AUUAGACGUGA (ssRNA) [Cy5-rpoA-G], the Kd in data set [1] (label: 5' Cy5) came out at 0.0431 µM; in data set [2] (label: 5' Cy5), 0.107 µM; in data set [3] (label: 5' Cy5), 0.072 µM; in data set [4] (label: 5' Cy5), 0.118 µM; in data set [5] (label: 5' Cy5), 0.0776 µM.
In the case of AUUAAACGUGA (ssRNA) [IR-rpoA-A], the Kd came to 0.296 µM in data set [1] (label: 5' IRDye 800CW); 0.0907 µM in data set [2] (label: 5' IRDye 800CW); 0.0406 µM in data set [3] (label: 5' IRDye 800CW); 0.2 µM in data set [4] (label: 5' IRDye 800CW); 0.181 µM in data set [5] (label: 5' IRDye 800CW).
With AUUACACGUGA (ssRNA) [Cy5-rpoA], the Kd in data set [1] (label: 5' Cy5) came to 0.143 µM; in data set [2] (label: 5' Cy5), 0.102 µM; in data set [3] (label: 5' Cy5), 0.0692 µM; in data set [4] (label: 5' Cy5), 0.098 µM; in data set [5] (label: 5' Cy5) it was 0.0794 µM.

(Values after PMC8809517, “Cofactor-independent RNA editing by a synthetic S-type PPR protein”.)
